The nature of the series: melting temperature; melt of duplexes. Conditions: sodium 0.0675 M; strand 1 µM.
As to “CGACGTGCGCTATGTGCTG+CAGCACATAGAGCACGTCG ((((((((.((((((((((+)))))))))).))))))))”, the midpoint of thermal melting (Tm) was found to be 58.7 °C.

In the case of “CGACGTGCAGAATGTGCTG+CAGCACATGCCGCACGTCG ((((((((.(.((((((((+)))))))).).))))))))”, the Tm is 54.6 °C. Under “CGACGTGCGATATGTGCTG+CAGCACATGCTGCACGTCG ((((((((...((((((((+))))))))...))))))))” stands 49.8 °C; under “CGACGTGCCTGATGTGCTG+CAGCACATCGTGCACGTCG ((((((((..(((((((((+)))))))))..))))))))”, 51.4 °C.

With “CGACGTGCACAATGTGCTG+CAGCACATTCGGCACGTCG ((((((((..(((((((((+)))))))))..))))))))”, the midpoint of thermal melting (Tm) came to 49.7 °C.

“CGACGTGCCACATGTGCTG+CAGCACATATTGCACGTCG ((((((((.(.((((((((+)))))))).).))))))))”: the Tm was determined as 47.4 °C. For the substance “CGACGTGCAGGATGTGCTG+CAGCACATGGGGCACGTCG ((((((((...((((((((+))))))))...))))))))”, the Tm turned out to be 50.4 °C. The result for “CGACGTGCGGCATGTGCTG+CAGCACATGGCGCACGTCG (((((((((.(((((((((+))))))))).)))))))))” reads 65.9 °C.

Take “CGACGTGCCGAATGTGCTG+CAGCACATCGAGCACGTCG ((((((((...((((((((+))))))))...))))))))”: the melting temperature (Tm) is 55.3 °C.

For “CGACGTGCACTATGTGCTG+CAGCACATGAGGCACGTCG ((((((((...((((((((+))))))))...))))))))”, the Tm amounted to 47.5 °C.

Consider “CGACGTGCTCGATGTGCTG+CAGCACATACGGCACGTCG ((((((((...((((((((+))))))))...))))))))”, for which the Tm came to 50.5 °C. Under “CGACGTGCCGTATGTGCTG+CAGCACATTTGGCACGTCG (((((((((..((((((((+))))))))..)))))))))” stands 55.2 °C. On to “CGACGTGCGCGATGTGCTG+CAGCACATGTCGCACGTCG (((((((((..((((((((+))))))))..)))))))))”, for which the Tm is 55.5 °C. With “CGACGTGCATAATGTGCTG+CAGCACATAAGGCACGTCG ((((((((.(.((((((((+)))))))).).))))))))”, the Tm worked out at 51.3 °C.

For “CGACGTGCGGCATGTGCTG+CAGCACATAGGGCACGTCG ((((((((...((((((((+))))))))...))))))))”, the Tm came out at 49.5 °C. Take “CGACGTGCTGTATGTGCTG+CAGCACATGGTGCACGTCG ((((((((...((((((((+))))))))...))))))))”: the Tm turned out to be 47.2 °C.

For the substance “CGACGTGCAGCATGTGCTG+CAGCACATGGGGCACGTCG ((((((((..(((((((((+)))))))))..))))))))”, the Tm was determined as 56.9 °C. As for “CGACGTGCCAAATGTGCTG+CAGCACATGCTGCACGTCG ((((((((...((((((((+))))))))...))))))))”, the Tm is 48.2 °C.

Regarding “CGACGTGCTCTATGTGCTG+CAGCACATGGCGCACGTCG ((((((((.(.((((((((+)))))))).).))))))))”, the melting temperature (Tm) was 51.6 °C. The result for “CGACGTGCAACATGTGCTG+CAGCACATCATGCACGTCG (((((((((..((((((((+))))))))..)))))))))” reads 49 °C; that for “CGACGTGCTGAATGTGCTG+CAGCACATACCGCACGTCG ((((((((.(.((((((((+)))))))).).))))))))”, 51.3 °C. Under “CGACGTGCCCAATGTGCTG+CAGCACATTCCGCACGTCG ((((((((..(((((((((+)))))))))..))))))))” stands 49.3 °C; under “CGACGTGCTCAATGTGCTG+CAGCACATCTAGCACGTCG (((((((((..((((((((+))))))))..)))))))))”, 51 °C. Under “CGACGTGCTTCATGTGCTG+CAGCACATGCAGCACGTCG (((((((((.(((((((((+))))))))).)))))))))” stands 56.9 °C. For the substance “CGACGTGCCACATGTGCTG+CAGCACATTGCGCACGTCG ((((((((...((((((((+))))))))...))))))))”, the melting temperature (Tm) worked out at 50.5 °C. The result for “CGACGTGCATAATGTGCTG+CAGCACATTTAGCACGTCG ((((((((..(((((((((+)))))))))..))))))))” reads 53.2 °C; that for “CGACGTGCGCGATGTGCTG+CAGCACATCACGCACGTCG (((((((((.(((((((((+))))))))).)))))))))”, 62.2 °C; that for “CGACGTGCGCCATGTGCTG+CAGCACATGATGCACGTCG ((((((((..(((((((((+)))))))))..))))))))”, 54.9 °C. With “CGACGTGCTCGATGTGCTG+CAGCACATGTCGCACGTCG ((((((((...((((((((+))))))))...))))))))”, the Tm was 48.2 °C. The result for “CGACGTGCTAGATGTGCTG+CAGCACATAACGCACGTCG ((((((((...((((((((+))))))))...))))))))” reads 49.9 °C; that for “CGACGTGCTGCATGTGCTG+CAGCACATATCGCACGTCG ((((((((...((((((((+))))))))...))))))))”, 48.3 °C. The result for “CGACGTGCCGTATGTGCTG+CAGCACATGTTGCACGTCG ((((((((...((((((((+))))))))...))))))))” reads 48.3 °C; that for “CGACGTGCGAGATGTGCTG+CAGCACATTTGGCACGTCG ((((((((.(.((((((((+)))))))).).))))))))”, 52.5 °C; that for “CGACGTGCCCGATGTGCTG+CAGCACATTTCGCACGTCG ((((((((...((((((((+))))))))...))))))))”, 47.6 °C.

In the case of “CGACGTGCCGCATGTGCTG+CAGCACATATAGCACGTCG ((((((((...((((((((+))))))))...))))))))”, the Tm turned out to be 48.2 °C. As for “CGACGTGCGATATGTGCTG+CAGCACATATAGCACGTCG ((((((((.((((((((((+)))))))))).))))))))”, the midpoint of thermal melting (Tm) was determined as 57.5 °C. Under “CGACGTGCAATATGTGCTG+CAGCACATAATGCACGTCG (((((((((.(((((((((+))))))))).)))))))))” stands 54.6 °C. On to “CGACGTGCCCAATGTGCTG+CAGCACATTGGGCACGTCG (((((((((((((((((((+)))))))))))))))))))”, for which the Tm came out at 66 °C. The result for “CGACGTGCATAATGTGCTG+CAGCACATCACGCACGTCG ((((((((.(.((((((((+)))))))).).))))))))” reads 47.6 °C; that for “CGACGTGCCCGATGTGCTG+CAGCACATAAAGCACGTCG ((((((((...((((((((+))))))))...))))))))”, 49.8 °C. With “CGACGTGCTTCATGTGCTG+CAGCACATTTGGCACGTCG ((((((((...((((((((+))))))))...))))))))”, the Tm is 48.6 °C. The result for “CGACGTGCGGAATGTGCTG+CAGCACATGCAGCACGTCG ((((((((.(.((((((((+)))))))).).))))))))” reads 59.9 °C; that for “CGACGTGCCGCATGTGCTG+CAGCACATGGAGCACGTCG ((((((((..(((((((((+)))))))))..))))))))”, 55.1 °C; that for “CGACGTGCGAAATGTGCTG+CAGCACATATAGCACGTCG ((((((((.(.((((((((+)))))))).).))))))))”, 54.3 °C.

As to “CGACGTGCACTATGTGCTG+CAGCACATTAAGCACGTCG ((((((((...((((((((+))))))))...))))))))”, the Tm was 44.3 °C. As for “CGACGTGCTAAATGTGCTG+CAGCACATTTGGCACGTCG ((((((((.((((((((((+)))))))))).))))))))”, the Tm came to 57.9 °C. The result for “CGACGTGCGCAATGTGCTG+CAGCACATGGCGCACGTCG ((((((((((.((((((((+)))))))).))))))))))” reads 63 °C; that for “CGACGTGCGTTATGTGCTG+CAGCACATTCAGCACGTCG ((((((((...((((((((+))))))))...))))))))”, 52.1 °C. Turning to “CGACGTGCTGTATGTGCTG+CAGCACATCACGCACGTCG ((((((((...((((((((+))))))))...))))))))”, the Tm was 50.7 °C. Under “CGACGTGCTGAATGTGCTG+CAGCACATCAGGCACGTCG ((((((((...((((((((+))))))))...))))))))” stands 53.5 °C; under “CGACGTGCGCAATGTGCTG+CAGCACATGCCGCACGTCG (((((((((..((((((((+))))))))..)))))))))”, 56.6 °C; under “CGACGTGCAACATGTGCTG+CAGCACATCGCGCACGTCG ((((((((...((((((((+))))))))...))))))))”, 47.7 °C. Turning to “CGACGTGCGATATGTGCTG+CAGCACATTACGCACGTCG (((((((((..((((((((+))))))))..)))))))))”, the midpoint of thermal melting (Tm) worked out at 54.7 °C. “CGACGTGCATGATGTGCTG+CAGCACATTTAGCACGTCG ((((((((...((((((((+))))))))...))))))))”: the midpoint of thermal melting (Tm) came out at 49.8 °C.

Turning to “CGACGTGCGTTATGTGCTG+CAGCACATGATGCACGTCG ((((((((.(.((((((((+)))))))).).))))))))”, the Tm is 54.6 °C.

“CGACGTGCTTAATGTGCTG+CAGCACATGGTGCACGTCG ((((((((...((((((((+))))))))...))))))))”: the Tm was 50.3 °C. Regarding “CGACGTGCCTTATGTGCTG+CAGCACATAACGCACGTCG ((((((((.((((((((((+)))))))))).))))))))”, the Tm is 52.2 °C. As for “CGACGTGCTGGATGTGCTG+CAGCACATGCAGCACGTCG ((((((((((.((((((((+)))))))).))))))))))”, the Tm amounted to 61.3 °C. Under “CGACGTGCAGAATGTGCTG+CAGCACATACAGCACGTCG ((((((((.(.((((((((+)))))))).).))))))))” stands 52 °C; under “CGACGTGCCCCATGTGCTG+CAGCACATGGTGCACGTCG ((((((((.((((((((((+)))))))))).))))))))”, 56.7 °C; under “CGACGTGCACCATGTGCTG+CAGCACATGATGCACGTCG (((((((((.(((((((((+))))))))).)))))))))”, 56.5 °C. In the case of “CGACGTGCAACATGTGCTG+CAGCACATCTTGCACGTCG ((((((((((.((((((((+)))))))).))))))))))”, the Tm is 52.5 °C.

As for “CGACGTGCGGGATGTGCTG+CAGCACATGAGGCACGTCG ((((((((...((((((((+))))))))...))))))))”, the midpoint of thermal melting (Tm) was determined as 51.9 °C. In the case of “CGACGTGCCCTATGTGCTG+CAGCACATATTGCACGTCG ((((((((..(((((((((+)))))))))..))))))))”, the midpoint of thermal melting (Tm) amounted to 48.9 °C. The result for “CGACGTGCGGGATGTGCTG+CAGCACATGACGCACGTCG (((((((((..((((((((+))))))))..)))))))))” reads 57.6 °C. Under “CGACGTGCCTCATGTGCTG+CAGCACATACAGCACGTCG ((((((((...((((((((+))))))))...))))))))” stands 48.3 °C.

A word on the Tm: it is the temperature at the midpoint of the melting transition.
